# Reference: publication PMC5014551
# B1: Bol3-Strep [S. cerevisiae] / Aco2 [S. cerevisiae (endogenous in yeast mitochondria)] (parent)
# chain 1: MKLPQTMLRSISVKHVRWPRILTGSKLWYSTQMAMTPEEKMITDKLQQELEPEVCKVQDVSGGCGSMFAINITSKKFNGLSLIKQHQLVNRILRDDISRWHGLQLTTKKSTGKGPASS
# chain 2: ATHANMFPSVSKNFQTKVPPYAKLLTNLDKIKQITNNAPLTLAEKILYSHLCDPEESITSSDLSTIRGNKYLKLNPDRVAMQDASAQMALLQFMTTGLNQTSVPASIHCDHLIVGKDGETKDLPSSIATNQEVFDFLESCAKRYGIQFWGPGSGIIHQIVLENFSAPGLMMLGTDSHTPNAGGLGAIAIGVGGADAVDALTGTPWELKAPKILGVKLTGKLNGWSTPKDVITKLAGLLTVRGGTGYIVEYFGEGVSTLSCTGMATICNMGAEIGATTSTFPYQEAHKRYLQATNRAEVAEAADVALNKFNFLRADKDAQYDKVIEIDLSAIEPHVNGPFTPDLSTPISQYAEKSLKENWPQKVSAGLIGSCTNSSYQDMSRVVDLVKQASKAGLKPRIPFFVTPGSEQIRATLERDGIIDIFQENGAKVLANACGPCIGQWNREDVSKTSKETNTIFTSFNRNFRARNDGNRNTMNFLTSPEIVTAMSYSGDAQFNPLTDSIKLPNGKDFKFQPPKGDELPKRGFEHGRDKFYPEMDPKPDSNVEIKVDPNSDRLQLLEPFKPWNGKELKTNVLLKVEGKCTTDHISAAGVWLKYKGHLENISYNTLIGAQNKETGEVNKAYDLDGTEYDIPGLMMKWKSDGRPWTVIAEHNYGEGSAREHAALSPRFLGGEILLVKSFARIHETNLKKQGVLPLTFANESDYDKISSGDVLETLNLVDMIAKDGNNGGEIDVKITKPNGESFTIKAKHTMSKDQIDFFKAGSAINYIGNIRRNE
# B2: Bol3-Strep [S. cerevisiae] / Aco1 [S. cerevisiae (endogenous in yeast mitochondria)] (parent)
# chain 1: B1 chain 1
# chain 2: ATVSNLTRDSKVNQNLLEDHSFINYKQNVETLDIVRKRLNRPFTYAEKILYGHLDDPHGQDIQRGVSYLKLRPDRVACQDATAQMAILQFMSAGLPQVAKPVTVHCDHLIQAQVGGEKDLKRAIDLNKEVYDFLASATAKYNMGFWKPGSGIIHQIVLENYAFPGALIIGTDSHTPNAGGLGQLAIGVGGADAVDVMAGRPWELKAPKILGVKLTGKMNGWTSPKDIILKLAGITTVKGGTGKIVEYFGDGVDTFSATGMGTICNMGAEIGATTSVFPFNKSMIEYLEATGRGKIADFAKLYHKDLLSADKDAEYDEVVEIDLNTLEPYINGPFTPDLATPVSKMKEVAVANNWPLDVRVGLIGSCTNSSYEDMSRSASIVKDAAAHGLKSKTIFTVTPGSEQIRATIERDGQLETFKEFGGIVLANACGPCIGQWDRRDIKKGDKNTIVSSYNRNFTSRNDGNPQTHAFVASPELVTAFAIAGDLRFNPLTDKLKDKDGNEFMLKPPHGDGLPQRGYDAGENTYQAPPADRSTVEVKVSPTSDRLQLLKPFKPWDGKDAKDMPILIKAVGKTTTDHISMAGPWLKYRGHLENISNNYMIGAINAENKKANCVKNVYTGEYKGVPDTARDYRDQGIKWVVIGDENFGEGSSREHAALEPRFLGGFAIITKSFARIHETNLKKQGLLPLNFKNPADYDKINPDDRIDILGLAELAPGKPVTMRVHPKNGKPWDAVLTHTFNDEQIEWFKYGSALNKIKADEKK
# B3: Bol3-Strep [S. cerevisiae] / Bio2 [S. cerevisiae (endogenous in yeast mitochondria)] (parent)
# chain 1: B1 chain 1
# chain 2: TKYATNAAVKSTTASSEASTLGALQYALSLDEPSHSWTKSQLKEIYHTPLLELTHAAQLQHRKWHDPTKVQLCTLMNIKSGGCSEDCKYCAQSSRNDTGLKAEKMVKVDEVIKEAEEAKRNGSTRFCLGAAWRDMKGRKSAMKRIQEMVTKVNDMGLETCVTLGMVDQDQAKQLKDAGLTAYNHNIDTSREHYSKVITTRTYDDRLQTIKNVQESGIKACTGGILGLGESEDDHIGFIYTLSNMSPHPESLPINRLVAIKGTPMAEELADPKSKKLQFDEILRTIATARIVMPKAIIRLAAGRYTMKETEQFVCFMAGCNSIFTGKKMLTTMCNGWDEDKAMLAKWGLQPMEAFKYDRS
# B4: Bol3-Strep [S. cerevisiae] / Grx5 [S. cerevisiae (endogenous in yeast mitochondria)] (parent)
# chain 1: B1 chain 1
# chain 2: LSTEIRKAIEDAIESAPVVLFMKGTPEFPKCGFSRATIGLLGNQGVDPAKFAAYNVLEDPELREGIKEFSEWPTIPQLYVNKEFIGGCDVITSMARSGELADLLEEAQALVPEEEEETKDR
# B5: Bol3-Strep [S. cerevisiae] / Lys4 [S. cerevisiae (endogenous in yeast mitochondria)] (parent)
# chain 1: B1 chain 1
# chain 2: LKGQNLTEKIVQSYAVNLPEGKVVHSGDYVSIKPAHCMSHDNSWPVALKFMGLGATKIKNPSQIVTTLDHDIQNKSEKNLTKYKNIENFAKKHHIDHYPAGRGIGHQIMIEEGYAFPLNMTVASDSHSNTYGGLGSLGTPIVRTDAAAIWATGQTWWQIPPVAQVELKGQLPQGVSGKDIIVALCGLFNNDQVLNHAIEFTGDSLNALPIDHRLTIANMTTEWGALSGLFPVDKTLIDWYKNRLQKLGTNNHPRINPKTIRALEEKAKIPKADKDAHYAKKLIIDLATLTHYVSGPNSVKVSNTVQDLSQQDIKINKAYLVSCTNSRLSDLQSAADVVCPTGDLNKVNKVAPGVEFYVAAASSEIEADARKSGAWEKLLKAGCIPLPSGCGPCIGLGAGLLEPGEVGISATNRNFKGRMGSKDALAYLASPAVVAASAVLGKISSPAEVLSTSEIPFSGVKTEIIENPVVEEEVNAQTEAPKQSVEILEGFPREFSGELVLCDADNINTDGIYPGKYTYQDDVPKEKMAQVCMENYDAEFRTKVHPGDIVVSGFNFGTGSSREQAATALLAKGINLVVSGSFGNIFSRNSINNALLTLEIPALIKKLREKYQGAPKELTRRTGWFLKWDVADAKVVVTEGSLDGPVILEQKVGELGKNLQEIIVKGGLEGWVKSQL
# B6: Bol3-Strep [S. cerevisiae] / Lip5 [S. cerevisiae (endogenous in yeast mitochondria)] (parent)
# chain 1: B1 chain 1
# chain 2: SSTIRCGTSATRPIRSNALNTDSDNASVRVPVGNSTEVENATSQLTGTSGKRRKGNRKRITEFKDALNLGPSFADFVSGKASKMILDPLEKARQNTEEAKKLPRWLKVPIPKGTNYHKLKGDVKELGLSTVCEEARCPNIGECWGGKDKSKATATIMLLGDTCTRGCRFCSVKTNRTPSKPDPMEPENTAEAIKRWGLGYVVLTTVDRDDLVDGGANHLAETVRKIKQKAPNTLVETLSGDFRGDLKMVDIMAQCGLDVYAHNLETVESLTPHVRDRRATYRQSLSVLERAKATVPSLITKTSIMLGLGETDEQITQTLKDLRNIQCDVVTFGQYMRPTKRHMKVVEYVKPEKFDYWKERALEMGFLYCASGPLVRSSYKAGEAFIENVLKKRNMK
# B7: Bol1-Strep [S. cerevisiae] / Grx5 [S. cerevisiae (endogenous in yeast mitochondria)] (parent)
# chain 1: MFKRAMSTDGPVARTILKRLECGFPDYKNFAFGLYNDSHKHKGHAGVQGNVSAETHFRIEMVSKKFEGLKLPQRHRMVYSLLQDEMAQANGIHALQLSLKTPQEYESKAK
# chain 2: B4 chain 2
# B8: Bol3-Strep [S. cerevisiae] / Sdh2 [S. cerevisiae (endogenous in yeast mitochondria)] (parent)
# chain 1: B1 chain 1
# chain 2: TATTAAATHTPRLKTFKVYRWNPDEPSAKPHLQSYQVDLNDCGPMVLDALLKIKDEQDSTLTFRRSCREGICGSCAMNIGGRNTLACICKIDQNESKQLKIYPLPHMFIVKDLVPDLTNFYQQYKSIQPYLQRSSFPKDGTEVLQSIEDRKKLDGLYECILCACCSTSCPSYWWNQEQYLGPAVLMQAYRWLIDSRDQATKTRKAMLNNSMSLYRCHTIMNCTRTCPKGLNPGLAIAEIKKSLAFA
# Variants of: B1
# Test: Strep-tag affinity purification with MS proteomics (spectral counts)
# Conditions: parent: 0, read off a plot
row,screen value [%],Variant
1,11,chain 1 MKLPQTMLRSISVKHVRWPRILTGSKLWYSTQMAMTPEEKMITDKLQQELEPEVCKVQDVSGGCGSMFAINITSKKFNGLSLIKQHQLVNRILRDDISRWCGLQLTTKKSTGKGPASS

# Variants of: B2
# Test: as above
# Conditions: parent: 10, read off a plot
row,screen value [%],Variant
1,22,chain 1 MKLPQTMLRSISVKHVRWPRILTGSKLWYSTQMAMTPEEKMITDKLQQELEPEVCKVQDVSGGCGSMFAINITSKKFNGLSLIKQHQLVNRILRDDISRWCGLQLTTKKSTGKGPASS

# Variants of: B3
# Test: as above
# Conditions: parent: 8, read off a plot
row,screen value [%],Variant
1,31,chain 1 MKLPQTMLRSISVKHVRWPRILTGSKLWYSTQMAMTPEEKMITDKLQQELEPEVCKVQDVSGGCGSMFAINITSKKFNGLSLIKQHQLVNRILRDDISRWCGLQLTTKKSTGKGPASS

# Variants of: B4
# Test: as above
# Conditions: parent: 21, read off a plot
row,screen value [%],Variant
1,18,chain 1 MKLPQTMLRSISVKHVRWPRILTGSKLWYSTQMAMTPEEKMITDKLQQELEPEVCKVQDVSGGCGSMFAINITSKKFNGLSLIKQHQLVNRILRDDISRWCGLQLTTKKSTGKGPASS

# Variants of: B5
# Test: as above
# Conditions: parent: 10, read off a plot
row,screen value [%],Variant
1,30,chain 1 MKLPQTMLRSISVKHVRWPRILTGSKLWYSTQMAMTPEEKMITDKLQQELEPEVCKVQDVSGGCGSMFAINITSKKFNGLSLIKQHQLVNRILRDDISRWCGLQLTTKKSTGKGPASS

# Variants of: B6
# Test: as above
# Conditions: parent: 10, read off a plot
row,screen value [%],Variant
1,10,chain 1 MKLPQTMLRSISVKHVRWPRILTGSKLWYSTQMAMTPEEKMITDKLQQELEPEVCKVQDVSGGCGSMFAINITSKKFNGLSLIKQHQLVNRILRDDISRWCGLQLTTKKSTGKGPASS

# Variants of: B7
# Test: as above
# Conditions: parent: 47, read off a plot
row,screen value [%],Variant
1,5.9,chain 1 MFKRAMSTDGPVARTILKRLECGFPDYKNFAFGLYNDSHKHKGHAGVQGNVSAETHFRIEMVSKKFEGLKLPQRHRMVYSLLQDEMAQANGICALQLSLKTPQEYESKAK

# Variants of: B8
# Test: as above
# Conditions: parent: 32, read off a plot
row,screen value [%],Variant
1,24,chain 1 MKLPQTMLRSISVKHVRWPRILTGSKLWYSTQMAMTPEEKMITDKLQQELEPEVCKVQDVSGGCGSMFAINITSKKFNGLSLIKQHQLVNRILRDDISRWCGLQLTTKKSTGKGPASS
